Assay results taken from article PMC5343425.

Biological target: Purified LDLR ectodomain (UniProt P01130)
Assay: SPR; BIAcore 3000; LDLR ectodomain immobilised on a CM5 chip by amine coupling (target 1000 RU); lipoprotein fractions injected at 5 nM apoB in HBS-N pH 7.4 (0.01 M HEPES, 0.15 M NaCl) with 0.5% BSA and 1 mM calcium chloride; 25 °C, 30 μl/min for 3 min; fitted with the two-state binding model (A + B ↔ AB ↔ AB*)

Sequence of Purified LDLR ectodomain (P01130 22-788): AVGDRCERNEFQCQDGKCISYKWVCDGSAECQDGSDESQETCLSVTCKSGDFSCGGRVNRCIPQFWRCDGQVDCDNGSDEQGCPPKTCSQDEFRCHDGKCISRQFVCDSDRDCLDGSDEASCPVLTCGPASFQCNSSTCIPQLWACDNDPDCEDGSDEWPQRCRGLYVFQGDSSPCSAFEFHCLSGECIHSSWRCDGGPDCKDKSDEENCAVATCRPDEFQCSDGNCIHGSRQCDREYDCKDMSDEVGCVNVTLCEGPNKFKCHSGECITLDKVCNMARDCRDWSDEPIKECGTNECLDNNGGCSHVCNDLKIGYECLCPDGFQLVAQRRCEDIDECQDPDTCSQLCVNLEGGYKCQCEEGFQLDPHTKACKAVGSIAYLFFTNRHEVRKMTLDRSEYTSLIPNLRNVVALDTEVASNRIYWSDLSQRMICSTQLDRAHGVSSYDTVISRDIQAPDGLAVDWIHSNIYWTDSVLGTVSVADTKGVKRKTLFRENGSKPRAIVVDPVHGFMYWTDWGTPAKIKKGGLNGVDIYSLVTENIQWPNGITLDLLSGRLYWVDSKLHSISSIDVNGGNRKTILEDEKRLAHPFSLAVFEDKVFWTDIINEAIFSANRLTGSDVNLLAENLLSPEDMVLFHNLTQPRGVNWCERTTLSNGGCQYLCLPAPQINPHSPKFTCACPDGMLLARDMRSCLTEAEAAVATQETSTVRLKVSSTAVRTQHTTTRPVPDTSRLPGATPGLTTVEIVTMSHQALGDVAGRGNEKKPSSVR

Substance	K1 (two-state, step 1)	K2 (two-state, step 2)	Ka	ka1 (two-state, step 1)	ka2 (two-state, step 2)	kd1 (two-state, step 1)	kd2 (two-state, step 2)
LDL (density 1.019-1.063 g/ml) isolated from fasting APOE3/E4 subjects (from UniProt P02649 19-317; P02649 19-317) (complex)	1.4e+08 M⁻¹	1.7	5e+08 M⁻¹	1.45e+06 M⁻¹ s⁻¹	0.006 s⁻¹	0.0127 s⁻¹	0.00287 s⁻¹
VLDL1-rich TRL fraction (Sf 60-400) isolated from fasting plasma of APOE3/E4 subjects (from UniProt P02649 19-317; P02649 19-317) (complex)	1.9e+08 M⁻¹	17.3	3.3e+09 M⁻¹	930000 M⁻¹ s⁻¹	0.017 s⁻¹	0.0052 s⁻¹	0.00097 s⁻¹
